IntAct's records for PubMed 25278935

B1: HPr kinase/phosphorylase (Bacillus subtilis), O34483 (parent)
chain: MAKVRTKDVMEQFNLELISGEEGINRPITMSDLSRPGIEIAGYFTYYPRERVQLLGKTELSFFEQLPEEEKKQRMDSLCTDVTPAIILSRDMPIPQELIDASEKNGVPVLRSPLKTTRLSSRLTNFLESRLAPTTAIHGVLVDIYGVGVLITGKSGVGKSETALELVKRGHRLVADDCVEIRQEDQDTLVGNAPELIEHLLEIRGLGIINVMTLFGAGAVRSNKRITIVMNLELWEQGKQYDRLGLEEETMKIIDTEITKLTIPVRPGRNLAVIIEVAAMNFRLKRMGLNAAEQFTNKLADVIEDGEQEE
partner: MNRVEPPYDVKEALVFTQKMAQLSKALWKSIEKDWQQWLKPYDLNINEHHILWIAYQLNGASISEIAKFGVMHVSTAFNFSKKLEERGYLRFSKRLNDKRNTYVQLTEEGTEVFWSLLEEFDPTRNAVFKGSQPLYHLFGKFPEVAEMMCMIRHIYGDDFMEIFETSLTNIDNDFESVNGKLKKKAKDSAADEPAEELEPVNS
B2: Anti-sigma F factor (Bacillus subtilis), P10728 (parent)
chain: MKNEMHLEFSALSQNESFARVTVASFIAQLDPTMDELTEIKTVVSEAVTNAIIHGYEENCEGKVYISVTLEDHVVYMTIRDEGLGITDLEEARQPLFTTKPELERSGMGFTIMENFMDDVSIDSSPEMGTTIRLTKHLSKSKALCN
partner: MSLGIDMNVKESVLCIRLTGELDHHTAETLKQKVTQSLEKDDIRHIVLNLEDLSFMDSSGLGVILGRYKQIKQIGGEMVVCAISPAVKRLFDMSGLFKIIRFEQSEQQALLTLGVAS
B3: Serine/threonine-protein kinase RsbT (Bacillus subtilis), P42411 (parent)
chain: MNDQSCVRIMTEWDIVAARQLGRNVAKELGFGTVDQARITTAISELARNIYLYAGKGQIGIEQVADRGKKGLKIIAEDQGPGIPDIRKVMEDGFSTSGGLGAGLPGVKRLMDEFSLNSVAGEGTEIQAIKWLR
partner: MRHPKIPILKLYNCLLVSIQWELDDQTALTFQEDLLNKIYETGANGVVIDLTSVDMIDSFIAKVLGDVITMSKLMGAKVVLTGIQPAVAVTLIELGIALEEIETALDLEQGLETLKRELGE
B4: Tyrosine-protein kinase YwqD (Bacillus subtilis), P96716 (parent)
chain: MALRKNRGSRMQRNVIAMTEPKSLNSEQYRTIRTNIEFASVDRQMKSVMITSACPGEGKSTTAANLAVVFAQQGKKVLLIDADLRKPTVHTAFFLENTVGLTSVLLKKSSMEQAVQASNEKHLDVLTSGPIPPNPAELLSSKWMKELAYEACAAYDMVIFDTPPILAVADAQILGNVADGSVLVISSGKTEKEQAAKAKEALATCKSKLLGAIMNGKKLSKHSEYGYYGTKDNFMQK
partner: B3 chain

Variants of: B1
Conditions: with hpr_bacsu hpr

effect of a mutation on the interaction | Variant
disrupting interaction strength | Q53M

Variants of: B2
Conditions: with sp2aa_bacsu spoIIAA

effect of a mutation on the interaction | Variant
disrupting interaction strength | N50A

Variants of: B3
Conditions: with rsbs_bacsu rsbS

effect of a mutation on the interaction | Variant
disrupting interaction strength | N49A

Variants of: B4
Conditions: with rsbt_bacsu rsbT

effect of a mutation on the interaction | Variant
increasing interaction strength | D81A
